The test system of data set [1] is atopic dermatitis patients. Nature of the data set: Atopic dermatitis longitudinal PK-PD model of lebrikizumab (EASI score) and simulated dosing regimens. Further details: species or system human. Conditions: PK-PD model fitted to EASI scores up to 12 weeks from Clinical Study I. The source says: In FIG. 5, R(t) is the EASI score; Kin0 is the baseline disease progression rate constant; kin is the disease progression rate constant with lebrikizumab and including the placebo/TCS effect; Edrug is the lebrikizumab drug effect on disease progression inhibition; Econ is the placebo/TCS effect (constant overtime); Emax is the maximum lebrikizumab drug effect on disease progression inhibition; EC50 is the lebrikizumab concentration that leads to 50% of Emax; kout is the tissue repair rate constant; R(t=0) is the baseline EASI score; IIV is the inter-individual variability; ωkout is the inter-individual variability for kout; ωEcon is the inter-individual variability for Econ; ρKoutXEcon is the correlation between kout and Econ; and σ is the residual error.
The model was used to simulate the predicted efficacy, e.g., EASI-75 score, of various alternative dosing regimens, for example, including but not limited to, various loading doses followed subsequently by various maintenance doses, e.g., flat doses of lebrikizumab administered at regular time intervals, or various lower flat doses or higher flat doses, or increased treatment intervals with lebrikizumab.
The model development began with raw pharmacokinetic and efficacy data that had been collected during the conduct of the Phase II Clinical Study I described above. […]

Data set [2] can be described thus: Clinical Study I: serum lebrikizumab pharmacokinetics. Type of data set: in vivo, human. Conditions: AD patients; for Mean Cmax, wk1 / Mean Cmin wk12 / Mean Cmin, wk4 / Mean Cmin, wk8: serum. The protocol:
Pharmacokinetic parameters were also assessed as follows. Serum samples for analysis of lebrikizumab pharmacokinetics were obtained at Day 1 (pre-dose) and at Weeks 1, 4 (pre-dose), 6, 8 (pre-dose), 12, 16, and 20 for all dosing regimens. Serum lebrikizumab concentrations were summarized by treatment and visit using descriptive statistics for the patients that received one of the lebrikizumab treatment regimens.

The half-life is the time needed for the level to fall by half in the phase considered. The low end stands for rapid decline, the high end for slow decline. Turning to “lebrikizumab: monoclonal humanized anti-IL-13 IgG4 antibody; heavy chain SEQ ID NO: 11, light chain SEQ ID NO: 12; formulated at 125 mg/mL in prefilled syringe”, in data set [1], the “EC50 (lebrikizumab concentration that leads to 50% of Emax), estimate” value is 8.08 mg/L and the “Emax (maximum lebrikizumab drug effect on disease progression inhibition), estimate” value is on record as 0.729. Also, in data set [2] (125 mg Q4W subcutaneous), the “t½ (elimination half-life)” value turned out to be 20.9 days; the “Mean Cmax, wk1” value was 16.1 µg/mL; the “Mean Cmin wk12” value turned out to be 14.4 µg/mL; the “Mean Cmin, wk4” value is 9.15 µg/mL. In addition, the “Mean Cmin, wk8” value in data set [2] (125 mg Q4W subcutaneous) stood at 13.6 µg/mL. For the same substance, in data set [2] (125 mg SD subcutaneous), the “t½ (elimination half-life)” value is 18.5 days; the “Mean Cmax, wk1” value turned out to be 17.0 µg/mL; the “Mean Cmin wk12” value came to 2.28 µg/mL; the “Mean Cmin, wk4” value is 10.2 µg/mL. For the same substance, in data set [2] (125 mg SD subcutaneous), the “Mean Cmin, wk8” value was determined as 4.59 µg/mL. Moreover, in data set [2] (250 mg SD subcutaneous), the “t½ (elimination half-life)” value was found to be 22.2 days; the “Mean Cmax, wk1” value came to 35.6 µg/mL; the “Mean Cmin wk12” value was determined as 3.77 µg/mL; the “Mean Cmin, wk4” value is 21.4 µg/mL. In data set [2] (250 mg SD subcutaneous), the “Mean Cmin, wk8” value was 9.53 µg/mL. The half-life in data set [2] (across the dosing regimens) lay in the range of 19 to 22 days.

(Values after patent publication US12692302B2, “Uses of IL-13 antagonists for treating atopic dermatitis” (Genentech, Inc., priority 2016, dated 2026).)
